Data: patent EP2168984B1 (Abbott GmbH & Co. KG, dated 2012)

Key:
Experiment in all cases: competition ELISA: soluble cytokine against J695 (100 ng/ml) binding to immobilized human IL-12
human TGF-β1 = human TGF-β1 (human, UniProt P01137 279-390)
human IFN-gamma = molecular target: T1, human IFN-gamma (human, UniProt P01579 24-166, limits assumed)
T1 sequence (looked up): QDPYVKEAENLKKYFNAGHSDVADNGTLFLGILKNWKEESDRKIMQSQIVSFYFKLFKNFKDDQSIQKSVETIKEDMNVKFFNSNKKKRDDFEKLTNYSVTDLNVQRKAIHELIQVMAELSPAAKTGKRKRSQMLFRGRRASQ

human M-CSF = molecular target: T2, human M-CSF (human, UniProt P09603 33-190, limits assumed)
T2 sequence (looked up): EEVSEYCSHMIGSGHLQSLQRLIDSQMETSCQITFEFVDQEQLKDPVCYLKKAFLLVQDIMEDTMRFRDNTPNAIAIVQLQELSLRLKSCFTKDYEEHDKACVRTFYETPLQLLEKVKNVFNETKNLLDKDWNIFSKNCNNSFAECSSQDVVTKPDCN

human lymphotoxin = molecular target: T3, human lymphotoxin (human, UniProt P01374 35-205, limits assumed)
T3 sequence (looked up): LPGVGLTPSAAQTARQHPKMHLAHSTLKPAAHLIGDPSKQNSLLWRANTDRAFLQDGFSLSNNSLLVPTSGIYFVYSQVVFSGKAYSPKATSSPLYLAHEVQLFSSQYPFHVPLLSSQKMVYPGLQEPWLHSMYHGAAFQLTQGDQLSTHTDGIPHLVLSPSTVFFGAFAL

human TNFα = human TNFα (human, UniProt P01375 77-233)
human IL-10 = human IL-10 (human, UniProt P22301 19-178)
human IL-8 = human IL-8 (human, UniProt P10145 28-99, limits assumed)
human LIF = human LIF (human, UniProt P15018 23-202)
human IL-4 = molecular target: T4, human IL-4 (human, UniProt P05112 25-153)
T4 sequence (looked up): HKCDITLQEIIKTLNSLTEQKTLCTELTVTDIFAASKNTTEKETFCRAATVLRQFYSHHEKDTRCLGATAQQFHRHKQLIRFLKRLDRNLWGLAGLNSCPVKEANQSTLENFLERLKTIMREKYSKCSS

human IGF-I = human IGF-I (human, UniProt P05019 49-118)
human IL-1α = molecular target: T5, human IL-1α (human, UniProt P01583 113-271)
T5 sequence (looked up): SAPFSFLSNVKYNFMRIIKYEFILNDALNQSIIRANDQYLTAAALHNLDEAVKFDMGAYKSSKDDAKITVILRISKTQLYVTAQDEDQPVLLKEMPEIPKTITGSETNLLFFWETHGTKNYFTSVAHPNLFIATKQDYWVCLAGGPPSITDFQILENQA

human IL-17 = human IL-17 (human, UniProt Q16552 20-155, limits assumed)
human IL-6 = human IL-6 (human, UniProt P05231 30-212)
[1] = molecular target: T6, human soluble IL-6 receptor (human, UniProt P08887 20-358)
T6 construct: Soluble form
T6 sequence (looked up): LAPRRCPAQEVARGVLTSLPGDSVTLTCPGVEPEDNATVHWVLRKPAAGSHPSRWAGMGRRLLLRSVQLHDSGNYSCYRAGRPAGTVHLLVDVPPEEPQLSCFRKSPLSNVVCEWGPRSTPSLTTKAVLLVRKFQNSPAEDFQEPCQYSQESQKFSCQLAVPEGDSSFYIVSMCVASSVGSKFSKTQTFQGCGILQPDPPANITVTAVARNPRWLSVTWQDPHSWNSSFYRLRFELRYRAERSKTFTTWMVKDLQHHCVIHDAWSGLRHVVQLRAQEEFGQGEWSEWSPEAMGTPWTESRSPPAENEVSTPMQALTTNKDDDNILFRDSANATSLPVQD

human IL-1β = human IL-1β (human, UniProt P01584 117-269)
human IGF-II = human IGF-II (human, UniProt P01344 25-91)
human IL-11 = molecular target: T7, human IL-11 (human, UniProt P20809 22-199)
T7 sequence (looked up): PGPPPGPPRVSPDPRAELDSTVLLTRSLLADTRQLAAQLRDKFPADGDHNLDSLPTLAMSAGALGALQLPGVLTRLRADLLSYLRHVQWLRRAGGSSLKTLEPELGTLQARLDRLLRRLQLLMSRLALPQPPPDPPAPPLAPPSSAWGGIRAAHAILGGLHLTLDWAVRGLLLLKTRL

human IL-2 = human IL-2 (human, UniProt P60568 21-153)

Measured: binding result

B1: J695 (human anti-human IL-12 antibody, IgG1) (antibody, V domains shown)
VH: QVQLVESGGGVVQPGRSLRLSCAASGFTFSSYGMHWVRQAPGKGLEWVAFIRYDGSNKYYADSVKGRFTISRDNSKNTLYLQMNSLRAEDTAVYYCKTHGSHDNWGQGTMVTVSS
VL: QSVLTQPPSVSGAPGQRVTISCSGSRSNIGSNTVKWYQQLPGTAPKLLIYYNDQRPSGVPDRFSGSKSGTSASLAITGLQAEDEADYYCQSYDRYTHPALLFGTGTKVTVLG
notes: Tested as whole IgG1 with lambda light chain (detected with anti-human lambda); also called IgG1 J695; Y61-L94Y-L50Y IgG
no binding (tested: 2nM): human TGF-β1 | human IFN-gamma | human M-CSF | human lymphotoxin | human TNFα | human IL-10 | human IL-8 | human LIF | human IL-4 | human IGF-I | human IL-1α | human IL-17 | human IL-6 | [1] | human IL-1β | human IGF-II | human IL-11 | human IL-2
